# Measured values published in PMC4919469 (2016).
# Tests used:
# [1] = biological target: T1, Cdc42Δ7Q61L (human, UniProt P60953 1-184, Q61L); assay: direct SPA, GTP-bound Cdc42
# [2] = biological target: T1, Cdc42Δ7Q61L; assay: competition SPA vs GST-WASP GBD
# Target sequence in this assay (P60953 1-184 Q61L): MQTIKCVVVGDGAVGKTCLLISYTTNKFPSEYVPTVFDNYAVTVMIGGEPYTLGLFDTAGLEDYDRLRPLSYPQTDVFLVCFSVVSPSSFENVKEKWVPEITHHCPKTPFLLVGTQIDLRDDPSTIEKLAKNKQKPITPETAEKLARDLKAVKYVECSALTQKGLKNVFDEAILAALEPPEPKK
# [3] = biological target: T1, Cdc42Δ7Q61L; assay: direct SPA, GTP-bound Cdc42; remark: listed apart in the source
Binder,Kd [3] [nM],other results
ISLPSDFEHTIHVGFDAVTGEFTGMPEQWARLLQTSNITKSEQK (domain or fragment) [GST-PAK],,Kd [1]: 60 nM
N-WASP G protein-binding domain (GBD) (residues 197–255) (domain or fragment) KKKLTKADIGTPSNFQHIGHVGWDPNTGFDVNNLDPELKKLFDLCGISEAQLKDKETSK,,Kd [2]: 16 nM
His-SNAP-TOCA1 ΔSH3 (residues 1–480) (domain or fragment) MSWGTELWDQFDNLEKHTQWGIDFLDKYAKFVKERLEIEQNYAKQLRNLVKKYCPKRSAKDEEPRFTSCLSFYNILNELNDYAGQREVVAEEMGHRVYAEIMRYSNDIKGERKSHLQEGRKAQQYLDMCLKQMDNSKRKFERECREAEKAQQTYERLDNDSNATKSDVEKAKQQLHLRTHMADESKNEYAAQLQNYNAEQHKHFYIVIPQVYKHLQEMDERRTVKLSECYKGFADAERKVIPIISKCLEGMVQAAKSVDERRDSQIVVDCFKSGFEPNGDYPFEDYSQHIYRTVSDGTISTPKQESLKPDPRVTVGKAKGKLWLFGKKPKGPALEDFSHLPPEQRRKRLQQRIDELSRELQKEMDQKDALNKMKDVYEKNPQMGDPSSLHPKIAETTSNIERLRMEIHKNEAWLSEVEGKVSQRSERRHSAEANHLVAQGRESPEGSYTEDANQEGRVQPQPHAHPEFDDEFDDDEPLPA,> 1000,
GLSAQDISQPLQNSFIHTGHGDSDPRHCWGFPDRIDELYLGN (domain or fragment) [GST-ACK GBD],46,
His-SNAP-TOCA1 (full-length X. tropicalis TOCA1) (natural protein) MSWGTELWDQFDNLEKHTQWGIDFLDKYAKFVKERLEIEQNYAKQLRNLVKKYCPKRSAKDEEPRFTSCLSFYNILNELNDYAGQREVVAEEMGHRVYAEIMRYSNDIKGERKSHLQEGRKAQQYLDMCLKQMDNSKRKFERECREAEKAQQTYERLDNDSNATKSDVEKAKQQLHLRTHMADESKNEYAAQLQNYNAEQHKHFYIVIPQVYKHLQEMDERRTVKLSECYKGFADAERKVIPIISKCLEGMVQAAKSVDERRDSQIVVDCFKSGFEPNGDYPFEDYSQHIYRTVSDGTISTPKQESLKPDPRVTVGKAKGKLWLFGKKPKGPALEDFSHLPPEQRRKRLQQRIDELSRELQKEMDQKDALNKMKDVYEKNPQMGDPSSLHPKIAETTSNIERLRMEIHKNEAWLSEVEGKVSQRSERRHSAEANHLVAQGRESPEGSYTEDANQEGRVQPQPHAHPEFDDEFDDDEPLPAIGHCKSLYPFDGNNEGTLAMKEGEVLYIIEEDKGDGWTRARKQNGEEGYVPTSYIDITLEKNSKGAVTYI,> 1000,
